# Results published in patent publication US20220281936A1.
# Molecular target: IL12 receptor on pre-activated mouse CD8+ T cells (mouse) (UniProt Q60837)
# Assay: cell-based or functional assay
# IL12 receptor on pre-activated mouse CD8+ T cells (mouse), sequence (Q60837 20-738, chain 1 of 2): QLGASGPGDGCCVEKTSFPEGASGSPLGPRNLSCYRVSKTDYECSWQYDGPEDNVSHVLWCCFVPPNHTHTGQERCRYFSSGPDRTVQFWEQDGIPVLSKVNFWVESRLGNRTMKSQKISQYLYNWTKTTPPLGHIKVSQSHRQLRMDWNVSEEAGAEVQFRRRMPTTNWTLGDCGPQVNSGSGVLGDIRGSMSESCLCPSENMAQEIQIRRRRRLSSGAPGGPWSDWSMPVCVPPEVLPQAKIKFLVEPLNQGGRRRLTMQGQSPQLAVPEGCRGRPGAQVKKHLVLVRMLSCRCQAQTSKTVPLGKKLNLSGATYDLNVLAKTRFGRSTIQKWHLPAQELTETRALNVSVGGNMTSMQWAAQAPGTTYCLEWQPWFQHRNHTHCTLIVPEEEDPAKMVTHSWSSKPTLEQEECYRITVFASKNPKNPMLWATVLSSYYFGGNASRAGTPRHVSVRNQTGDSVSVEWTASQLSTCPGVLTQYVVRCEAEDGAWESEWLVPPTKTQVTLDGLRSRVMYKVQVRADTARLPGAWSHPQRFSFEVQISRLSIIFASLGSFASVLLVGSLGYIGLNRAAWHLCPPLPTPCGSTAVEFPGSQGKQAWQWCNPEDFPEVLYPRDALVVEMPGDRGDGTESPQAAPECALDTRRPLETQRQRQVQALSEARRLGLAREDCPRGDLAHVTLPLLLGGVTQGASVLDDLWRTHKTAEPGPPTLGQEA
# IL12 receptor on pre-activated mouse CD8+ T cells (mouse), sequence (chain, as listed by the source, chain 2 of 2): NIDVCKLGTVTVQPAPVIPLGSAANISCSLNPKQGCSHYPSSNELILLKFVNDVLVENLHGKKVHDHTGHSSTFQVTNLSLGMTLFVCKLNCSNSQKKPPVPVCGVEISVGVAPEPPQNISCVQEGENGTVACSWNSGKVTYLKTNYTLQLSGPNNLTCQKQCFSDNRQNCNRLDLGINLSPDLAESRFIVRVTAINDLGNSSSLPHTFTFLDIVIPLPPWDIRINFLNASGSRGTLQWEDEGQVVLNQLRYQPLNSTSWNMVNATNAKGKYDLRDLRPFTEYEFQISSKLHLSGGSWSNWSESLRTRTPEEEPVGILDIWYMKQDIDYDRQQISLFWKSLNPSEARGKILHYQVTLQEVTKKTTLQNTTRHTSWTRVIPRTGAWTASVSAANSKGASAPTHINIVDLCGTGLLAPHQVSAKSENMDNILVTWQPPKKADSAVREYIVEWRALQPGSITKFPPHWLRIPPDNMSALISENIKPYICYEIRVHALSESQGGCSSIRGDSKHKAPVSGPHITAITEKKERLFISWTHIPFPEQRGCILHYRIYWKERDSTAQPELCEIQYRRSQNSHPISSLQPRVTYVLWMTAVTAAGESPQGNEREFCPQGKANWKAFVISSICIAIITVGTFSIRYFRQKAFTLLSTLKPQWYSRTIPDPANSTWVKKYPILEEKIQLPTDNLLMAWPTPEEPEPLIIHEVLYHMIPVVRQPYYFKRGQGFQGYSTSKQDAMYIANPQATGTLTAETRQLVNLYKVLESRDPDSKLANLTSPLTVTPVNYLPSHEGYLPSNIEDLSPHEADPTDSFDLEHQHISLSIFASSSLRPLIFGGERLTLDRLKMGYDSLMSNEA
substance,measurement,value
IL12Rβ1-(G3S)11-IL12,"EC50 of STAT4 phosphorylation in pre-activated mouse CD8+ T cells, fold against unmodified IL12",80 fold
